The values below come from US20250215104A1 (WALDEN BIOSCIENCES, published 2025).

The target in assay [1] is T1, human soluble urokinase plasminogen activator receptor (suPAR) (human, UniProt Q03405 23-303, limits assumed).
T1 construct: Target antigen of the scFv off-rate screen; also called hsuPAR; human suPAR
Nature of the assay: BLI (Octet) off-rate screen of scFv clones. (In BLI a coated tip is dipped into the sample, and binding shifts an interference pattern.)

Assay [2] has as its target T2, cynomolgus soluble urokinase plasminogen activator receptor (suPAR) (cynomolgus, UniProt Q9GK78 23-303, limits assumed).
T2 construct: Target antigen of the scFv off-rate screen; also called cynomolgus suPAR; cynomolgus uPAR
Nature of the assay: BLI (Octet) off-rate screen of scFv clones.

T1 sequence (Q03405 23-303 limits assumed): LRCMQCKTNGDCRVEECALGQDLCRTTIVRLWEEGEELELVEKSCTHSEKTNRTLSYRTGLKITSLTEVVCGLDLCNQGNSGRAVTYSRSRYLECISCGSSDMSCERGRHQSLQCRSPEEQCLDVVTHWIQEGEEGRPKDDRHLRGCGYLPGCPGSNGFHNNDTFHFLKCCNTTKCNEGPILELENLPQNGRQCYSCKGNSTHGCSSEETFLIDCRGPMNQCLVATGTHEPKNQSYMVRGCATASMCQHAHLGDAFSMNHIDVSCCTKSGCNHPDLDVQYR
T2 sequence (Q9GK78 23-303 limits assumed): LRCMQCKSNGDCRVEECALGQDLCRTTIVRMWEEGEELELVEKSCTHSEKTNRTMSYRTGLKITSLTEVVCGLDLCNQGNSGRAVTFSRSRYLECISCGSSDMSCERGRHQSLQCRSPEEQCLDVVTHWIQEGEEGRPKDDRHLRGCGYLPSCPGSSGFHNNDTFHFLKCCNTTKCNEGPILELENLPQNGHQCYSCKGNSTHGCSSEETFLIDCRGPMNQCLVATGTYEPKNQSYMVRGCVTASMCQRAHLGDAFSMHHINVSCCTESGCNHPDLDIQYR

B1: suPAR_DB06_F07 (scFv, V domains shown)
VH: QVQLVQSGAEVKKPGASVKVSCKASGYTFTNYYMHWVRQAPGQGLEWMGWIDHENGNTIYDQKFQGRVTMTRDTSTSTVYMELSSLRSEDTAVYYCARGYDVDWFVYWGQGTLVTVSS
VL: DIQMTQSPSSLSASVGDRVTITCSARSSVSYMYWYQQKPGKAPKLLIYRTSNLASGVPSRFSGSGSGTDFTLTISSLQPEDFATYYCQQYHSYPPTFGGGTKVEIK
What is called koff is the rate constant with which the complex falls apart. Lower therefore signals a long-lived complex. For the molecule B1, the figures for the koff in assay [1] and in assay [2] were 0.00402 s⁻¹ and 0.000455 s⁻¹, respectively.

B2: suPAR_DB06_B11 (scFv, V domains shown)
VH: QVQLVQSGAEVKKPGASVKVSCKASGYTFTSNYIHWVRQAPGQGLEWMGWIDHENGNTIYDQKFQGRVTMTRDTSTSTVYMELSSLRSEDTAVYYCAEGYDVDWFVYWGQGTLVTVSS
VL: DIQMTQSPSSLSASVGDRVTITCRARQSVSYMYWYQQKPGKAPKLLIYRTSNLASGVPSRFSGSGSGTDFTLTISSLQPEDFATYYCQQYHSYPPTFGGGTKVEIK
As to B2, the off-rate constant (koff) in assay [1] turned out to be 0.00489 s⁻¹; in assay [2], 0.000128 s⁻¹.

B3: suPAR_DB06_D02 (scFv, V domains shown)
VH: QVQLVQSGAEVKKPGASVKVSCKASGYTFTSNYMHWVRQAPGQGLEWMGWIDHENGNTIYDQKFQGRVTMTRDTSTSTVYMELSSLRSEDTAVYYCARGYDVDWFVYWGQGTLVTVSS
VL: DIQMTQSPSSLSASVGDRVTITCSASSSVSYMYWYQQKPGKAPKLLIYRTSNLASGVPSRFSGSGSGTDFTLTISSLQPEDFATYYCQQYHSYPPTFGGGTKVEIK
On to B3, for which the off-rate constant (koff) stood at 0.00422 s⁻¹ in assay [1] and 0.00023 s⁻¹ in assay [2].

B4: suPAR_DB06_B12 (scFv, V domains shown)
VH: QVQLVQSGAEVKKPGASVKVSCKASGYTFTNYYMHWVRQAPGQGLEWMGWIDPEGGNTIYDQKFQGRVTMTRDTSTSTVYMELSSLRSEDTAVYYCARGYDVDWFVYWGQGTLVTVSS
VL: DIQMTQSPSSLSASVGDRVTITCSARSSVSYMYWYQQKPGKAPKLLIYRTSNLASGVPSRFSGSGSGTDFTLTISSLQPEDFATYYCQQYHSYPPTFGGGTKVEIK
B4: the values for the koff in assay [1] and in assay [2] were 0.00203 s⁻¹ and 0.000293 s⁻¹, respectively.

B5: suPAR_DB06_C03 (scFv, V domains shown)
VH: QVQLVQSGAEVKKPGASVKVSCKASGYTFTSYYMHWVRQAPGQGLEWMGWIDPNSGGTNYAQKFQGRVTMTRDTSTSTVYMELSSLRSEDTAVYYCARGYDVDWFVYWGQGTLVTVSS
VL: DIQMTQSPSSLSASVGDRVTITCSARSSVSYMYWYQQKPGKAPKLLIYRTSNLASGVPSRFSGSGSGTDFTLTISSLQPEDFATYYCQQYHSYPPTFGGGTKVEIK
Take B5: the results for the off-rate (koff) in assay [1] and in assay [2] were 0.00347 s⁻¹ and 0.000332 s⁻¹, respectively.

B6: suPAR_DB06_C07 (scFv, V domains shown)
VH: QVQLVQSGAEVKKPGASVKVSCKASGYTFTNYYMHWVRQAPGQGLEWMGWIDPNGGGTQYAQKFQGRVTMTRDTSTSTVYMELSSLRSEDTAVYYCARGYDVDWFVYWGQGTLVTVSS
VL: DIQMTQSPSSLSASVGDRVTITCSARSSVSYMYWYQQKPGKAPKLLIYRTSNLASGVPSRFSGSGSGTDFTLTISSLQPEDFATYYCQQYHSYPPTFGGGTKVEIK
Regarding B6, the koff in assay [1] is 0.00495 s⁻¹; in assay [2], 0.000387 s⁻¹.

B7: suPAR_DB06_C12 (scFv, V domains shown)
VH: QVQLVQSGAEVKKPGASVKVSCKASGYSFTANYIHWVRQAPGQGLEWMGWIDHENGNTIYDQKFQGRVTMTRDTSTSTVYMELSSLRSEDTAVYYCANGYDVDWFVYWGQGTLVTVSS
VL: DIQMTQSPSSLSASVGDRVTITCSARSSVSYMYWYQQKPGKAPKLLIYRTSNLASGVPSRFSGSGSGTDFTLTISSLQPEDFATYYCQQYHSYPPTFGGGTKVEIK
As to B7, the koff was 0.00484 s⁻¹ in assay [1] and 7.52e-05 s⁻¹ in assay [2].

B8: suPAR_DB06_C11 (scFv, V domains shown)
VH: QVQLVQSGAEVKKPGASVKVSCKASGYTFTNYYMHWVRQAPGQGLEWMGWIDHENGNTIYDQKFQGRVTMTRDTSTSTVYMELSSLRSEDTAVYYCARGYDVDWFVYWGQGTLVTVSS
VL: DIQMTQSPSSLSASVGDRVTITCSARQSVSYMYWYQQKPGKAPKLLIYRTSNLASGVPSRFSGSGSGTDFTLTISSLQPEDFATYYCQQYHSYPPTFGGGTKVEIK
As to B8, the dissociation rate constant (koff) in assay [1] came out at 0.00201 s⁻¹; in assay [2] it was 0.000631 s⁻¹.

B9: suPAR_DB06_B10 (scFv, V domains shown)
VH: QVQLVQSGAEVKKPGASVKVSCKASGDTLTNYYMHWVRQAPGQGLEWMGWIDHENGSTIYAQKFQGRVTMTRDTSTSTVYMELSSLRSEDTAVYYCARGYDVDWFVYWGQGTLVTVSS
VL: DIQMTQSPSSLSASVGDRVTITCSARSSVSYMYWYQQKPGKAPKLLIYRTSNLQTGVPSRFSGSGSGTDFTLTISSLQPEDFATYYCQQYHSYPPTFGGGTKVEIK
For B9, the koff in assay [1] stood at 0.00141 s⁻¹; in assay [2], 0.000587 s⁻¹.

B10: suPAR_DB06_C10 (scFv, V domains shown)
VH: QVQLVQSGAEVKKPGASVKVSCKASGYTFSAYYMHWVRQAPGQGLEWMGWIDPSNGNTIYDQKFQGRVTMTRDTSTSTVYMELSSLRSEDTAVYYCARGYDVDWFVYWGQGTLVTVSS
VL: DIQMTQSPSSLSASVGDRVTITCSARSSVSYMYWYQQKPGKAPKLLIYRTSNLASGVPSRFSGSGSGTDFTLTISSLQPEDFATYYCQQYHSYPPTFGGGTKVEIK
In the case of B10, the koff in assay [1] came to 0.00599 s⁻¹; in assay [2] it was 0.00048 s⁻¹.

B11: suPAR_DB06_C06 (scFv, V domains shown)
VH: QVQLVQSGAEVKKPGASVKVSCKASGYTFSNYYMHWVRQAPGQGLEWMGWIDHEGGNTSYAQKFQGRVTMTRDTSTSTVYMELSSLRSEDTAVYYCARGYDVDWFVYWGQGTLVTVSS
VL: DIQMTQSPSSLSASVGDRVTITCSARSSVSYMYWYQQKPGKAPKLLIYRTSNLASGVPSRFSGSGSGTDFTLTISSLQPEDFATYYCQQYHSYPPTFGGGTKVEIK
For B11, the koff in assay [1] is 0.00311 s⁻¹; in assay [2], 0.00025 s⁻¹.

B12: suPAR_DB06_D05 (scFv, V domains shown)
VH: QVQLVQSGAEVKKPGASVKVSCKASGGTFTGYYMHWVRQAPGQGLEWMGWIDPSGGNTIYDQKFQGRVTMTRDTSTSTVYMELSSLRSEDTAVYYCARGYDVDWFVYWGQGTLVTVSS
VL: DIQMTQSPSSLSASVGDRVTITCSARQSVSYMYWYQQKPGKAPKLLIYRTSNLASGVPSRFSGSGSGTDFTLTISSLQPEDFATYYCQQYHSYPPTFGGGTKVEIK
Take B12: the results for the dissociation rate constant (koff) in assay [1] and in assay [2] were 0.00558 s⁻¹ and 0.000222 s⁻¹, respectively.

B13: suPAR_DB06_C01 (scFv, V domains shown)
VH: QVQLVQSGAEVKKPGASVKVSCKASGYTFTGYYMHWVRQAPGQGLEWMGWIDPSNGNTIYDQKFQGRVTMTRDTSTSTVYMELSSLRSEDTAVYYCARGYDVDWFVYWGQGTLVTVSS
VL: DIQMTQSPSSLSASVGDRVTITCSARQSISYMYWYQQKPGKAPKLLIYRTSNLASGVPSRFSGSGSGTDFTLTISSLQPEDFATYYCQQYHSYPPTFGGGTKVEIK
For B13, the values for the off-rate constant (koff) in assay [1] and in assay [2] were 0.00233 s⁻¹ and 1.49e-05 s⁻¹, respectively.

B14: suPAR_DB06_C09 (scFv, V domains shown)
VH: QVQLVQSGAEVKKPGASVKVSCKASGYTFTSYYMHWVRQAPGQGLEWMGWIDPENGNTIYDQKFQGRVTMTRDTSTSTVYMELSSLRSEDTAVYYCARGYDVDWFVYWGQGTLVTVSS
VL: DIQMTQSPSSLSASVGDRVTITCRARSSVSYMYWYQQKPGKAPKLLIYRTSNLASGVPSRFSGSGSGTDFTLTISSLQPEDFATYYCQQYHSYPPTFGGGTKVEIK
As to B14, the results for the koff in assay [1] and in assay [2] were 0.00382 s⁻¹ and 0.000566 s⁻¹, respectively.
